This passage reports Km, Vmax and kcat results from patent CN110760489A, “一种川芎咖啡酸-o-甲基转移酶的突变体及其用途” (Southwest Jiaotong University, priority 2019, dated 2020).

Substrate in series [1]: COC(=O)/C=C/c1ccc(O)c(O)c1
Nature of the series: 动力学参数值测定 (kinetic parameters, double-reciprocal method), wild-type LcCOMT. Type of series: biochemical, Ligusticum chuanxiong. To be noted: other: substrate 咖啡酸甲酯 0.0715-0.25 mM, S-adenosylmethionine 1 mM, pH 7.0, 37℃, HPLC, double-reciprocal plot, 37.0 °C.

Substrate in series [2]: COC(=O)/C=C/c1ccc(O)c(O)c1
Nature of the series: 动力学参数值测定 (kinetic parameters, double-reciprocal method), LcCOMT-I318T mutant. Type of series: biochemical, Ligusticum chuanxiong. The settings on record: other: substrate 咖啡酸甲酯 0.0715-0.25 mM, S-adenosylmethionine 1 mM, pH 7.0, 37℃, HPLC, double-reciprocal plot, 37.0 °C.

The Km is the concentration of substrate that gives half-maximal velocity.

B1: Ligusticum chuanxiong caffeic acid O-methyltransferase LcCOMT, wild type [野生型LcCOMT; 川芎咖啡酸-O-甲基转移酶] (Conioselinum anthriscoides) (protein)
chain: MNTELIPPTFLEDEEEEACMFAMQLSSASVLPMVLKSAIELNLLESIAKAGPGVYVSPSHLAAGLPSSQPDTPVMLDRILRLLASYSVLNCQLRDLPQGRVERLYGLAPVCKFLTKNSDGVSMAPLLLMNQDKILMESWYHLKDAVLDGGIPFNKAYGMTAFEYHGKDPRFNKVFNQGMSNHSTITMKKILQTYDGFGGLKTVVDVGGGTGATLNMIISKYPNLKGINFDLPHVVEDAPSYPGVEHVGGDMFVSVPKGDAIFMKWICHDWSDAHCLTFLKNCYKALPKDGKVILAECILPEAPDSKLTTKNVIHIDVIMLAHNPGGKERTEKDFEALGKEAGFKSFNKACCAYNTWVIEYYK
Regarding B1, in series [1], the Michaelis-Menten constant (Km) turned out to be 26.4 µM, the Vmax is recorded as 2.643*10^-8 M/S and the kcat is reported as 0.113 S-1.

B2: Ligusticum chuanxiong caffeic acid O-methyltransferase LcCOMT variant LcCOMT-I318T (Ile318 to Thr), SEQ ID No.2 [LcCOMT-I318T突变体; 川芎咖啡酸-O-甲基转移酶] (Conioselinum … (protein)
chain: MNTELIPPTFLEDEEEEACMFAMQLSSASVLPMVLKSAIELNLLESIAKAGPGVYVSPSHLAAGLPSSQPDTPVMLDRILRLLASYSVLNCQLRDLPQGRVERLYGLAPVCKFLTKNSDGVSMAPLLLMNQDKILMESWYHLKDAVLDGGIPFNKAYGMTAFEYHGKDPRFNKVFNQGMSNHSTITMKKILQTYDGFGGLKTVVDVGGGTGATLNMIISKYPNLKGINFDLPHVVEDAPSYPGVEHVGGDMFVSVPKGDAIFMKWICHDWSDAHCLTFLKNCYKALPKDGKVILAECILPEAPDSKLTTKNVIHIDVTMLAHNPGGKERTEKDFEALGKEAGFKSFNKACCAYNTWVIEYYK
Turning to B2, the Michaelis-Menten constant (Km) in series [2] turned out to be 19.7 µM.
